# Reference: article PMC12342889, “Deciphering the RNA recognition by Musashi-1 to design protein and RNA variants for in vitro and in vivo applications”
# Experiments:
# [1] = target: T1, MSI-1 RRM1-2 DM (Homo sapiens, UniProt O43347 1-200, E180N;K182M); assay: SPR; KD1 monovalent; 1:1 model at low RNA density; NMR: 50 mM Tris-HCl, 140 mM NaCl, 1 mM EDTA, 1 mM protease inhibitors, pH 7.2 (RRM1: pH 7.5), 298 K; fluorescence quenching: 50 mM Tris pH 7.2, 140 mM NaCl, 1 mM EDTA; SPR: biotinylated RNA immobilised, buffer not in the material; conditions: protein: recombinant; label: biotin for SPR; single strand
# T1 sequence (O43347 1-200 E180N/K182M): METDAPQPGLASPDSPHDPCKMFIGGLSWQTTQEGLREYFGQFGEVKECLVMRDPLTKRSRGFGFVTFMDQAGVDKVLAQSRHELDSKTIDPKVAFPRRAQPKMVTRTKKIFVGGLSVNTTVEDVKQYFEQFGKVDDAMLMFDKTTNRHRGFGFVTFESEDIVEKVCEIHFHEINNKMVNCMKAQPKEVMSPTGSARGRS
# [2] = target: MSI-1 RRM2-M1 (Homo sapiens, UniProt O43347 104-200, E180N); assay: SPR; NMR: 50 mM Tris-HCl, 140 mM NaCl, 1 mM EDTA, 1 mM protease inhibitors, pH 7.2 (RRM1: pH 7.5), 298 K; fluorescence quenching: 50 mM Tris pH 7.2, 140 mM NaCl, 1 mM EDTA; SPR: biotinylated RNA immobilised, buffer not in the material; conditions: protein: recombinant, label: biotin for SPR
# MSI-1 RRM2-M1, sequence (O43347 104-200 E180N): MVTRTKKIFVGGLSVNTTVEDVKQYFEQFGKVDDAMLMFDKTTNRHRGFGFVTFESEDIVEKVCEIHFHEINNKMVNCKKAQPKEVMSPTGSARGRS
# [3] = target: MSI-1 RRM2-M2 (Homo sapiens, UniProt O43347 104-200, K182M); assay: as above; conditions: protein: recombinant, label: biotin for SPR
# MSI-1 RRM2-M2, sequence (O43347 104-200 K182M): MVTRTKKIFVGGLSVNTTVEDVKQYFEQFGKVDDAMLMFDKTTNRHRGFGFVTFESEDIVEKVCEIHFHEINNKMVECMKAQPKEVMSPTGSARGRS
# [4] = target: MSI-1 RRM2 (Homo sapiens, UniProt O43347 104-200); assay: SPR; 1:1 model; NMR: 50 mM Tris-HCl, 140 mM NaCl, 1 mM EDTA, 1 mM protease inhibitors, pH 7.2 (RRM1: pH 7.5), 298 K; fluorescence quenching: 50 mM Tris pH 7.2, 140 mM NaCl, 1 mM EDTA; SPR: biotinylated RNA immobilised, buffer not in the material; conditions: protein: recombinant, label: biotin for SPR
# MSI-1 RRM2, sequence (O43347 104-200): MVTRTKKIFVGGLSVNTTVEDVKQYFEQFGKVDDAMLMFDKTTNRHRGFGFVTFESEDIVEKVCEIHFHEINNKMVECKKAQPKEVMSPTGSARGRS
# [5] = target: MSI-1 RRM1 (Homo sapiens, UniProt O43347 1-103); assay: as above; conditions: protein: recombinant, label: biotin for SPR
# MSI-1 RRM1, sequence (O43347 1-103): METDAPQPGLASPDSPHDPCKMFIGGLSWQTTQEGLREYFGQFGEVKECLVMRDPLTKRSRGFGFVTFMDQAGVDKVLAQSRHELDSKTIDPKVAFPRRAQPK
# [6] = target: T2, MSI-1 RRM1-2 (Homo sapiens, UniProt O43347 1-200); assay: SPR; KD1 monovalent; bivalent part negligible; NMR: 50 mM Tris-HCl, 140 mM NaCl, 1 mM EDTA, 1 mM protease inhibitors, pH 7.2 (RRM1: pH 7.5), 298 K; fluorescence quenching: 50 mM Tris pH 7.2, 140 mM NaCl, 1 mM EDTA; SPR: biotinylated RNA immobilised, buffer not in the material; conditions: protein: recombinant; label: biotin for SPR; single strand
# T2 sequence (O43347 1-200): as the sequence (O43347 1-200 E180N/K182M) above, with N180E, M182K counted along it
# [7] = target: T2, MSI-1 RRM1-2; assay: SPR; KD1 monovalent, 1:2 model; NMR: 50 mM Tris-HCl, 140 mM NaCl, 1 mM EDTA, 1 mM protease inhibitors, pH 7.2 (RRM1: pH 7.5), 298 K; fluorescence quenching: 50 mM Tris pH 7.2, 140 mM NaCl, 1 mM EDTA; SPR: biotinylated RNA immobilised, buffer not in the material; conditions: protein: recombinant, label: biotin for SPR, unlabelled for NMR
# [8] = target: T1, MSI-1 RRM1-2 DM; assay: NMR; more than one species; NMR: 50 mM Tris-HCl, 140 mM NaCl, 1 mM EDTA, 1 mM protease inhibitors, pH 7.2 (RRM1: pH 7.5), 298 K; fluorescence quenching: 50 mM Tris pH 7.2, 140 mM NaCl, 1 mM EDTA; SPR: biotinylated RNA immobilised, buffer not in the material; conditions: protein: recombinant; label: biotin for SPR; unlabelled for NMR; hairpin
# [9] = target: T1, MSI-1 RRM1-2 DM; assay: SPR; KD1 monovalent, 1:2 model; NMR: 50 mM Tris-HCl, 140 mM NaCl, 1 mM EDTA, 1 mM protease inhibitors, pH 7.2 (RRM1: pH 7.5), 298 K; fluorescence quenching: 50 mM Tris pH 7.2, 140 mM NaCl, 1 mM EDTA; SPR: biotinylated RNA immobilised, buffer not in the material; conditions: protein: recombinant; label: biotin for SPR; unlabelled for NMR; single strand
# [10] = target: T1, MSI-1 RRM1-2 DM; assay: SPR; KD1 monovalent; NMR: 50 mM Tris-HCl, 140 mM NaCl, 1 mM EDTA, 1 mM protease inhibitors, pH 7.2 (RRM1: pH 7.5), 298 K; fluorescence quenching: 50 mM Tris pH 7.2, 140 mM NaCl, 1 mM EDTA; SPR: biotinylated RNA immobilised, buffer not in the material; conditions: protein: recombinant; label: biotin for SPR; unlabelled for NMR; single strand
# [11] = unlabelled for NMR, single strand
Binder,Kd ([7]; hairpin) [nM],"Kd ([2]; unlabelled for NMR, hairpin) [nM]","Kd ([3]; unlabelled for NMR, hairpin) [nM]","Kd ([4]; unlabelled for NMR, hairpin) [nM]","Kd ([5]; unlabelled for NMR, hairpin) [nM]",Kd ([7]; single strand) [nM],"Kd [2, 11] [nM]","Kd [3, 11] [nM]","Kd [4, 11] [nM]","Kd [5, 11] [nM]",Kd [10] [nM],also measured
UUGUCAGUUACCCCUU (ssRNA) [oligo-L2.1],,,,,,,,,,,,Kd [1]: 67 ± 20.4 nM; Kd ([2]; single strand): 58.6 ± 3.6 nM; Kd ([3]; single strand): 62.9 ± 11 nM; Kd ([4]; single strand): 123 ± 7.8 nM; Kd ([5]; single strand): 151 ± 16.9 nM; Kd [6]: 218 ± 27.5 nM
AAGCGUUAGUUAUUUAGUCGCUU (structured_RNA) [oligo-HP4],76.8 ± 5.9,14.1 ± 2.5,39.1 ± 15,37.2 ± 2.4,21.9 ± 2.7,,,,,,,binding result [8]: binds
UUGUUAGUUACCCCUU (ssRNA) [oligo-L2],,,,,,57.6 ± 12.9,35.5 ± 3.6,108 ± 10.2,25 ± 3.6,47.1 ± 0.7,,Kd [9]: 104 ± 9.5 nM
CACUCUGUAGUAUGUAGGGUUUAUUU (structured_RNA) [oligo-HP5],48.6 ± 5.6,14.5 ± 0.8,14.5 ± 3,26.4 ± 1.6,32.8 ± 5.2,,,,,,,
UUGAUAGUUAGCAGGU (ssRNA) [oligo-L3.2],,,,,,144 ± 15,49.8 ± 11.4,88.5 ± 1.25,44.5 ± 4.5,85.6 ± 7.4,98.5 ± 6.9,
UUGUUAGUUAUUAGUU (ssRNA) [oligo-L3],,,,,,248 ± 8.5,74.8 ± 9.3,64.5 ± 4.1,81.6 ± 2,153 ± 8.6,98.5 ± 4.8,
